# Where two headings read alike, the source gives them in different places. Non-standard residues stand in square brackets, D forms with d. Tle = CC(C)(C)[C@H](N)C(=O)O
# T1: human Protein S (human, UniProt P07225 42-676)
# T1 construct: Called 'full length Protein S' / 'human full-length Protein S'; It was coated on plates (ELISA), Eu-labeled (LANCE) or immobilized on a chip (Biacore); also called PS; full length Protein S
# T1 sequence: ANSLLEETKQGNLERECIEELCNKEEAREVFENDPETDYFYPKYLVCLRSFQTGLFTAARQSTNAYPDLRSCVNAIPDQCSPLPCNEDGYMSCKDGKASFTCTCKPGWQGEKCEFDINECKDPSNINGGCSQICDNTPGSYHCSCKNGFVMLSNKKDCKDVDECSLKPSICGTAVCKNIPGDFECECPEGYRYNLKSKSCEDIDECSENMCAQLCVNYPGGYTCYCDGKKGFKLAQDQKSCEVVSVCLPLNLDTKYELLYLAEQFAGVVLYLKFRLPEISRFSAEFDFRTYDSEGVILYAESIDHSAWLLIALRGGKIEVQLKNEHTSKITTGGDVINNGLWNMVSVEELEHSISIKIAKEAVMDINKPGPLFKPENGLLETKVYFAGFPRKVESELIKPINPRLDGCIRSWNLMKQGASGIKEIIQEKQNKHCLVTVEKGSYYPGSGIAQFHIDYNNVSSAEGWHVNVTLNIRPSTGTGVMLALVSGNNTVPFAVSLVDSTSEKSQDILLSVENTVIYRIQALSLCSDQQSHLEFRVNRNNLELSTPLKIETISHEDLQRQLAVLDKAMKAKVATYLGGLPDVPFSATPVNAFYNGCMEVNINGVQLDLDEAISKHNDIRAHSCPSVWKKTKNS
# T2: human Protein S (UniProt P07225 42-676)
# T2 chain: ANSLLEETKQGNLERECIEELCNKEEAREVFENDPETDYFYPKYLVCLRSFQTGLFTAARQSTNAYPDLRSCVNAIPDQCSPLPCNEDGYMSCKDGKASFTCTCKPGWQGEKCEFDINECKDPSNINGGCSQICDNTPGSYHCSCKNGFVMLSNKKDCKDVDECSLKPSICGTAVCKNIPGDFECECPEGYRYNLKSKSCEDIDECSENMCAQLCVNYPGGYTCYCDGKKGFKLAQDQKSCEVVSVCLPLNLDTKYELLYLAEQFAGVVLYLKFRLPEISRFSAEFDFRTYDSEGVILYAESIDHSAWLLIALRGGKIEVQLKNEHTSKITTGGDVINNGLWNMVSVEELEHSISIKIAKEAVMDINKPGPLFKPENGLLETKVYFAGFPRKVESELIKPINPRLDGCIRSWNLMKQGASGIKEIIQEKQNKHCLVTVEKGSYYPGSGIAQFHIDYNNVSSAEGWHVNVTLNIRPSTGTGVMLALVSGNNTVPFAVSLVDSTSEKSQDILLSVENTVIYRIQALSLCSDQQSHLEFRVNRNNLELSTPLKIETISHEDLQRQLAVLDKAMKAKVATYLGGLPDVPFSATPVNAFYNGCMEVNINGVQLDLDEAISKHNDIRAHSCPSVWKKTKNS
# Columns and labels:
# human Protein S [1] = biological target: T1, human Protein S; experiment: competition ELISA; Protein S coated; competitor biotinylated tracer JBS0684
# Procedure: The competition (IC50) ELISA was performed using biotinylated tracer peptide JBS0684 to compete for Protein S-binding with candidate peptides. Peptides that compete with the tracer bind the same region of Protein S as the tracer (and each other). Ninety-six well PolySorp plates (Nunc) were coated with 3 μg/mL Protein S in coating buffer (15 mM Na₂CO₃, 35 mM NaHCO₃, pH 9.6) over night. […] Plates were then washed three times with HNaT. JBS0684 was applied at a concentration corresponding to the EC90 value determined in the binding ELISA. A competitor stock solution of peptide (10 mM) was diluted 1/33.3 in HNaT without HSA, and a serial 1/3 dilution was prepared with HNaT with 3% DMSO. The dilution was further diluted with the biotinylated tracer peptide in a ratio of 1:6 (20 μl competitor dilution and 100 μl tracer peptide). The mixture of competitor and tracer peptide was applied to the Protein S-coated microtiter plate and incubated for 1.5 hours. The plates were washed three times with HNaT. Peptide-Protein S binding was detected by applying HRP-conjugated streptavidin to the microtiter plate, incubating the mixture for one hour, washing the plate three times with HNaT, applying TMB (3,3′5,5′-Tetramethylbenzidin), and detecting the subsequent chromogenic conversion of TMB by HRP. IC50 measurements of peptides are provided herein (see, e.g., Table 3).
# human Protein S [2] = biological target: T1, human Protein S; experiment: cell-based or functional assay
# human Protein S [3] = biological target: T2, human Protein S; experiment: LANCE competition
# Procedure, shortened: (§1)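 This homogeneous time-resolved FRET competition assay (LANCE) used europium-labelled Protein S, ULight-labelled streptavidin and a biotinylated tracer peptide, with unlabelled test peptide titrated in three-fold steps. Final concentrations were 10 nM Protein S, 100 nM streptavidin and 300 nM tracer in 50 µl (or 2 nM Protein S and 60 nM tracer on a Tecan F500). Samples were incubated 1 hour at room temperature and read at Ex 340 nm, Em 665 nm. IC50 came from non-linear regression of the 665 nm signals.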
# human Protein S [4] = biological target: T1, human Protein S; experiment: cell-based or functional assay; remark: listed apart in the source
# human Protein S [5] = biological target: T1, human Protein S; experiment: LANCE TR-FRET competition; Eu-labeled Protein S; competitor tracer JBS0684
# Procedure: Peptides also were characterized in a competition, homogenous europium-based TR-FRET assay (LANCE IC50 assay) using JBS0684 as a tracer (i.e., competitor for Protein S binding). The following reagents were mixed together in a Perkin-Elmer ProxiPlate MTP well (indicated concentration is the final concentration): Eu-labeled Protein S (10 nM), Ulight™-labeled Streptavidin (100 nM), tracer (JBS0684 (300 nM)), and peptide (titrated in three-fold dilution steps). The final volume was 50 μl/well. The reaction mix was incubated for 1 hour at room temperature, then the fluorescence emission at 665 nm was recorded on a multi-mode reader (SpectraMax® M5, Molecular Devices) using the following instrument settings: Ex 340 nm, Em 665 nm, delay 50 μsec, integration 100 μsec, reads 100. Binding of tracer peptides to soluble europium-labeled Protein S was detected by Streptavidin labeled with an acceptor fluorophor (ULight™). Inhibition of tracer-binding to Protein S by a non-biotinylated peptide results in a decrease of TR-FRET between the Eu-labeled Protein S and ULight™-labeled Streptavidin. IC50 values were obtained from peptide titration curves at constant tracer concentration using non-linear regression of the fluorescence emission signals at 665 nm.
# Several peptides having multiple substitutions in the JBS2572 amino acid sequence were synthesized and evaluated using LANCE IC50 and CAT assays described above. For the assays, pooled normal plasma was supplemented with 3 nM APC and triggered with 6 pM TF, and 15 μM phospholipids (DOPC/POPS 80/20). Stock APC was diluted with TF-PL-MIX to 24 nM (plasma concentration: 3 nM).
# human Protein S [6] = biological target: T2, human Protein S; experiment: LANCE competition
# Procedure, shortened: as §1
Binder,IC50 (human Protein S [1]),CAT EC50 (human Protein S [2]),IC50 (human Protein S [3]),CAT EC50 (human Protein S [4]),IC50 (human Protein S [5]),IC50 (human Protein S [6])
Ac-GGHVSAGWYDYNFDHYREFT-NH2 [JBS2552],5.5 nM,24 nM,16.6 nM,–,–,–
Ac-TGLVSAGWYDYNNDTYREFT-NH2 [JBS3194],–,–,–,122 nM,1.8 nM,2 nM
Ac-TGLVEAGWYDYNFDVYREFT-NH2 [JBS3193],–,–,–,116 nM,2.5 nM,2.7 nM
Ac-YGLVSAGWYDYNFDHYMEFT-NH2 [JBS3196],–,–,–,155 nM,2.2 nM,2.5 nM
Ac-TGHVSAGWYDYNFDAYREFT-NH2 [JBS2528],5.2 nM,23 nM,18.8 nM,–,–,–
Ac-TGHVSAGWYDYNFDHYREFT-NH2 [JBS2512],3.9 nM,24 nM,21.5 nM,–,–,–
Ac-TGHVSAGWYDYNKDHYREFT-NH2 [JBS2602],3.4 nM,30 nM,10.9 nM,–,–,–
Ac-TGHVSAGWYDYNFDHYLEFT-NH2 [JBS2586],2.6 nM,19 nM,11 nM,–,–,–
Ac-TGHVSAGWYDYNFDHYFEFT-NH2 [JBS2625],1.6 nM,29 nM,6.6 nM,–,–,–
Ac-TGHVSAGWYDYNFDDYREFT-NH2 [JBS2546],6.8 nM,30 nM,31 nM,–,–,–
Ac-TGHVSAGWYDYNFDSYREFT-NH2 [JBS2661],2.8 nM,16 nM,7.8 nM,–,–,–
Ac-TGKVSAGWYDYNFDHYREFT-NH2 [JBS2592],5.6 nM,68 nM,20 nM,–,–,–
Ac-TAHVSAGWYDYNFDHYREFT-NH2 [JBS2516],3.3 nM,21 nM,9.9 nM,–,–,–
Ac-TGHVSAGWYDYNLDHYREFT-NH2 [JBS2582],2.3 nM,15 nM,7.4 nM,–,–,–
Ac-TGHVSAGWYDYNADHYREFT-NH2 [JBS2526],3.6 nM,19 nM,–,–,–,–
Ac-TGHVSAGWYDYNFDLYREFT-NH2 [JBS2584],2.7 nM,9 nM,–,–,–,–
Ac-TKHVSAGWYDYNFDHYREFT-NH2 [JBS2591],4.2 nM,–,–,–,–,–
Ac-TGHVSAGWYDYNFDKYREFT-NH2 [JBS2604],4.1 nM,19 nM,–,–,–,–
Ac-TPHVSAGWYDYNFDHYREFT-NH2 [JBS2629],3.1 nM,25 nM,–,–,–,–
Ac-TGLVSAGWYDYNFDTYMEFT-NH2 [JBS3186],–,–,–,176 nM,2.6 nM,–
Ac-TGLVSAGWYDYNFDTYTEFT-NH2 [JBS3188],–,–,–,155 nM,2.9 nM,–
Ac-TGLVSAGWYDYNFDVYTEFT-NH2 [JBS3189],–,–,–,281 nM,5 nM,–
Ac-YGLVSAGWYDYNFDTYREFT-NH2 [JBS3190],–,–,–,130 nM,1.6 nM,–
Ac-YGLVSAGWYDYNFDVYREFT-NH2 [JBS3191],–,–,–,147 nM,1.6 nM,–
Ac-TGLVEAGWYDYNFDTYREFT-NH2 [JBS3192],–,–,–,117 nM,2.8 nM,–
Ac-TGLVEAGWYDYNFDHYMEFT-NH2 [JBS3197],–,–,–,146 nM,6.1 nM,–
Ac-TGLVSAGWYDYNNDHYMEFT-NH2 [JBS3198],–,–,–,149 nM,2.5 nM,–
Ac-TGL[Tle]SAGWYDYNFDTYREFT-NH2 (SMILES CC(=O)N[C@H](C(=O)NCC(=O)N[C@@H](CC(C)C)C(=O)N[C@H](C(=O)N[C@@H](CO)C(=O)N[C@@H](C)C(=O)NCC(=O)N[C@@H](Cc1c[nH]c2ccccc12)C(=O)N[C@@H](Cc1ccc(O)cc1)C(=O)N[C@@H](CC(=O)O)C(=O)N[C@@H](Cc1ccc(O)cc1)C(=O)N[C@@H](CC(N)=O)C(=O)N[C@@H](Cc1ccccc1)C(=O)N[C@@H](CC(=O)O)C(=O)N[C@H](C(=O)N[C@@H](Cc1ccc(O)cc1)C(=O)N[C@@H](CCCNC(=N)N)C(=O)N[C@@H](CCC(=O)O)C(=O)N[C@@H](Cc1ccccc1)C(=O)N[C@H](C(N)=O)[C@@H](C)O)[C@@H](C)O)C(C)(C)C)[C@@H](C)O) [JBS3202],–,–,–,129 nM,1.6 nM,–
Ac-TGL[Tle]SAGWYDYNFDHYMEFT-NH2 [JBS3203],–,–,–,127 nM,1.8 nM,–
